Data: publication PMC8163371
Where two headings read alike, the source gives them in different places.

Experiments:
[1] = molecular target: H3K9me2S28ph nucleosomes (individually reconstituted for quantitative measurements); assay: MST
[2] = molecular target: H3K9me2S28ph nucleosomes (individually reconstituted for quantitative measurements); assay: MST; remark: listed apart in the source
[3] = molecular target: H3K9me2 nucleosomes (individually reconstituted for quantitative measurements); assay: MST
[4] = molecular target: H3K9me2S28ph nucleosomes (individually reconstituted for quantitative measurements); assay: MST; remark: listed apart in the source
HP1β (HP1) [5] = molecular target: HP1β (HP1) (UniProt P83916); assay: eCFP-HP1 retention on H2A + H3 nucleosome library; conditions: reference: H3K9me2 nucleosomes; sites S28
HP1β (HP1) [6] = molecular target: HP1β (HP1) (UniProt P83916); assay: eCFP-HP1 retention on immobilised nucleosome library; conditions: reference: H3K9me2 nucleosomes; sites S28

| Kd [1] [nM] | fold stronger binding than the H3K9me2 nucleosome on 187 bp DNA [1] [fold] | Kd [2] [nM] | Kd [3] [nM] | Kd [4] [nM] | fold change (HP1β (HP1) [5]) [fold] | other: fold enrichment over unmodified H3 nucleosomes (HP1β (HP1) [6]) | Substance |
| --- | --- | --- | --- | --- | --- | --- | --- |
| 600 | 2 | 1800 | 2400 | 1700 |  |  | HP1 without eCFP tag (human HP1β) (from UniProt P83916 1-185) (natural protein) |
|  |  |  |  |  | 2.3 | stronger; reference 4.8 | histone H3 H3K9me2S28ph nucleosomes |
